Assay results from patent US20220024992A1, “COMPOSITIONS AND METHODS COMPRISING LYSOCINS AS BIOENGINEERED ANTIMICROBIALS FOR USE IN TARGETING GRAM-NEGATIVE BACTERIA” (The Rockefeller University, priority 2018, published 2022).
Values after ≈ are worked out from the molar mass of the structure shown. Read-outs that look alike come from different tables or passages of the source.

Columns and labels:
P. aeruginosa strains [1] = assay: MIC and MBC, modified CLSI broth microdilution, CAA medium; format: cell-based; settings: strain 453, FpvA type I
Procedure: The MIC and MBC values were calculated using a modified version of the broth microdilution assay as previously described by the Clinical and Laboratory Standards Institute (CLSI) (45). The specific modifications were to the bacterial concentration and growth medium used. […] CAA medium was used for Gram-negative bacteria to simulate low iron conditions. Alternatively, MHB was used for Gram-positive bacteria due to their inability to grow in CAA medium. Bacterial growth was assessed by measuring the OD600 nm using a SpectraMax M5 microplate reader (Molecular Devices). The MIC was defined as the lowest antimicrobial concentration that inhibits bacterial growth. To determine the MBC, the contents from each well originating from the MIC microtiter plate was plated on CAA agar to quantitate bacterial viability. The MBC was defined as the lowest antimicrobial concentration required to kill ≥99.9% of the initial bacterial inoculum. Growth and sterility controls were included.

[2] = target: ferripyoverdine A type I (FpvAI) receptor (Pseudomonas aeruginosa) (UniProt P48632); assay: cell-based or functional assay
[3] = target: FpvAIII receptor (Pseudomonas aeruginosa); assay: cell-based or functional assay
[4] = target: FpvAII receptor (Pseudomonas aeruginosa); assay: cell-based or functional assay
[5] = test system: pseudomonal PG (autoclaved P. aeruginosa); assay: Muralytic plate lysis assay on autoclaved Pseudomonas; format: biochemical; settings: 25 pmol spotted
P. aeruginosa strains [6] = assay: MIC, CLSI broth microdilution in CAA medium with EDDHA
Procedure: The FpvA receptor type for all P. aeruginosa strains used was determined using multiplex PCR, as previously described (67). […] CAA medium consisting of 0.5 mg/ml EDDHA was used instead of MHB. All P. aeruginosa strains were initially inoculated in CAA medium and grown overnight at 37° C. with aeration. The bacteria were then pelleted, washed and resuspended in CAA medium with EDDHA. Using a 96-well U-bottom microtiter plate, P. aeruginosa at a final concentration of 5×10^5 CFU/ml were incubated statically at 37° C. with 0.002-256 μg/ml lysocin in CAA medium with EDDHA for a total of 48 h. Growth (bacteria incubated in growth medium absent lysocin) and sterility controls (growth medium only) were included for each dataset. At the culmination of the experiment, each plate was visually inspected for bacterial growth. All samples were assayed in triplicate. The MIC was defined as the lowest concentration of lysocin that inhibited observable bacterial growth.

P. aeruginosa strain 453 = assay: Cell viability assays with 0.5 μM antimicrobial
Procedure: P. aeruginosa strain 453 were grown under iron-depleted conditions (see Bacterial Strains and Growth Conditions). The bacteria were harvested, washed and resuspended in fresh CAA medium with 0.5 mg/ml EDDHA. Using a 96-well flat-bottomed microtiter plate, the bacteria at ˜10^6 CFU/ml were incubated statically at 37° C. with either growth medium only (untreated control) or 0.5 μM purified antimicrobial. A 2 h incubation was used for the single time point experiments, whereas a 4 or 6 h incubation was used for the multiple time point assays. At various time points, an aliquot was removed from each sample, serially diluted and plated on CAA agar. After incubating the agar plates for up to 48 h at 37° C., colonies were counted in order to quantitate the CFU/ml concentration of surviving bacterial cells. Modifications were introduced to the aforementioned cell viability assay protocol for the experiment using P. aeruginosa grown in the presence of varying free iron concentrations. First, P. aeruginosa strain 453 were grown using iron-depleted or iron-rich conditions (CAA medium supplemented with 100 μM FeSO4) at 37° C. with aeration for a total of 16-18 h and subsequently assayed for lysocin sensitivity in PBS, pH 7.4. For the experiment analyzing lysocin activity in the presence of lung surfactant or serum, P. aeruginosa were incubated with or without lysocin in beractant ([sequence]; Abbvie) or HuS diluted 1:1 with 20 mM sodium phosphate, pH 7.0.

[7] = Pseudomonas aeruginosa, read-out: MBC
[8] = Pseudomonas aeruginosa, read-out: MIC

Compound	MIC, P. aeruginosa strain 447 (FpvAI) [2] [µg/mL]	MIC, P. aeruginosa strain 453 (FpvAI) [2] [µg/mL]	MIC, P. aeruginosa strain AR465 (FpvAI) [2] [µg/mL]	MIC, P. aeruginosa strain AR469 (FpvAI) [2] [µg/mL]	MIC, P. aeruginosa strain AR470 (FpvAI) [2] [µg/mL]	MIC, P. aeruginosa strain AR474 (FpvAI) [2] [µg/mL]	MIC, P. aeruginosa strain PAO1 (FpvAI) [2] [µg/mL]	MIC, P. aeruginosa strain 443 (FpvAIII) [3] [µg/mL]	MIC, P. aeruginosa strain 450 (FpvAIII) [3] [µg/mL]	MIC, P. aeruginosa strain AR471 (FpvAIII) [3] [µg/mL]	MIC, P. aeruginosa strain 445 (FpvAII) [4] [µg/mL]	MIC, P. aeruginosa strain 448 (FpvAII) [4] [µg/mL]	MIC, P. aeruginosa strain 451 (FpvAII) [4] [µg/mL]	MIC, P. aeruginosa strain AR468 (FpvAII) [4] [µg/mL]	also measured
C[C@@H](O)[C@H]1C(=O)N2C(C(=O)O)=C(S[C@@H]3CN[C@H](C(=O)N(C)C)C3)[C@H](C)[C@H]12 [Meropenem, meropenem, reference compound]															MBC (P. aeruginosa strains [1]; [7]): 8 µg/mL (≈ 20.9 µM); MIC (P. aeruginosa strains [1]; [8]): 8 µg/mL (≈ 20.9 µM)
PyS2-I-GN3 lysocin	8	4	4	8	4	4	8	> 256	> 256	> 256	> 256	> 256	> 256	> 256	
CEWL: Chicken egg white lysozyme, positive control for muralytic activity [reference compound]															muralytic activity (clearing zones) on autoclaved P. aeruginosa [5]: Clearing zones
colistin [reference compound]															MBC (P. aeruginosa strains [1]): 0.5 µg/mL; MIC (P. aeruginosa strains [1]): 0.5 µg/mL
PyS2-I-PlyPa03: PyS2 aa 1-209, GSx3 linker, P. aeruginosa lysin PlyPa03 (aa 2-144)															activity towards strains (P. aeruginosa strains [6]; P. aeruginosa strains expressing FpvAII and FpvAIII): ineffective; MIC (P. aeruginosa strains [6]; strain 443, FpvAIII): >256 µg/mL; MIC (P. aeruginosa strains [6]; strain 445, FpvAII): >256 µg/mL; MIC (P. aeruginosa strains [6]; strain 447, FpvAI): 4 µg/mL; MIC (P. aeruginosa strains [6]; strain 448, FpvAII): >256 µg/mL; MIC (P. aeruginosa strains [6]; strain 450, FpvAIII): >256 µg/mL; MIC (P. aeruginosa strains [6]; strain 451, FpvAII): >256 µg/mL; MIC (P. aeruginosa strains [6]; strain 453, FpvAI): 0.25 µg/mL; MIC (P. aeruginosa strains [6]; strain AR465, FpvAI): 2 µg/mL; MIC (P. aeruginosa strains [6]; strain AR468, FpvAII): >256 µg/mL; MIC (P. aeruginosa strains [6]; strain AR469, FpvAI): 4 µg/mL; MIC (P. aeruginosa strains [6]; strain AR470, FpvAI): 8 µg/mL; MIC (P. aeruginosa strains [6]; strain AR471, FpvAIII): >256 µg/mL; MIC (P. aeruginosa strains [6]; strain AR474, FpvAI): 4 µg/mL; MIC (P. aeruginosa strains [6]; strain PAO1, FpvAI): 4 µg/mL; decrease in viability of Pseudomonas (P. aeruginosa strain 453; 1 h, iron-chelated CAA medium): 3.6 log10; killing of Pseudomonas (P. aeruginosa strain 453; 2 h, 50% HuS): 4.5 log10; killing of P. aeruginosa (P. aeruginosa strain 453; 2 h, 50% beractant (SURVANTA)): 3.6 log10; killing of P. aeruginosa (P. aeruginosa strain 453; 4 h, iron-chelated CAA medium): 6.2 log10; muralytic activity (clearing zones) on autoclaved P. aeruginosa [5]: degraded pseudomonal PG
PyS2-I-GN4 lysocin	4	0.25	4	8	8	4	4	> 256	> 256	> 256	> 256	> 256	> 256	> 256	
PyS2-GN4 lysocin															MBC, P. aeruginosa strain 453 (FpvA type I) [2]: 0.25 µg/mL; MIC, P. aeruginosa strain 452 (FpvA type I) [2]: 4 µg/mL; MIC, P. aeruginosa strain 453 (FpvA type I) [2]: 0.25 µg/mL; MIC, P. aeruginosa strain MDR-M-3 (FpvA type I) [2]: 2 µg/mL; MIC, P. aeruginosa strain PAO1 (FpvA type I) [2]: 2 µg/mL; MIC, P. aeruginosa strain 443 (FpvA type III) [3]: > 256 µg/mL; MIC, P. aeruginosa strain 450 (FpvA type III) [3]: > 256 µg/mL; MIC, P. aeruginosa strain 445 (FpvA type II) [4]: > 256 µg/mL; MIC, P. aeruginosa strain 446 (FpvA type II) [4]: > 256 µg/mL; MIC, P. aeruginosa strain 448 (FpvA type II) [4]: > 256 µg/mL; MIC, P. aeruginosa strain 449 (FpvA type II) [4]: > 256 µg/mL; MIC, P. aeruginosa strain 451 (FpvA type II) [4]: > 256 µg/mL
PyS2-I-PlyPa03 lysocin	4	0.25	2	4	8	4	4	> 256	> 256	> 256	> 256	> 256	> 256	> 256	
NC[C@H]1O[C@H](O[C@H]2[C@H](O)[C@@H](O[C@H]3O[C@H](CO)[C@@H](O)[C@H](N)[C@H]3O)[C@H](N)C[C@@H]2N)[C@H](N)C[C@@H]1O [Tobramycin, tobramycin, reference compound]															MBC (P. aeruginosa strains [1]; [7]): 0.25 µg/mL (≈ 0.535 µM); MIC (P. aeruginosa strains [1]; [8]): 0.125 µg/mL (≈ 0.267 µM)
